Measured values from PMC2664613.

Biological target: F-actin (rabbit muscle actin polymerised in vitro) (rabbit) (UniProt P68135)
Test: co-sedimentation

In the case of “GST-PICK1 (from UniProt Q9EP80 1-416) (natural protein)”, the Kd is reported as 0.3 µM.
